Reference: PMC5374404, “A key centriole assembly interaction interface between human PLK4 and STIL appears to not be conserved in flies” (Biology Open, 2017)
“And” between values parts separate entries of the source, which are not always exact repeats. Equal entries are not always repeated. Ends that are not written are not given here.

What was measured:
[1] = molecular target: T1, Drosophila Sak/PLK4 Polo-Box-3 domain (aa 657-745), tag cleaved (Drosophila melanogaster (Fruit fly), UniProt O97143); assay: analytical gel filtration
T1 chain: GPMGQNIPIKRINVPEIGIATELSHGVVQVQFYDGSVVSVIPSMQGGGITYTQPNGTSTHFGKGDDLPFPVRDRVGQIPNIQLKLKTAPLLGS

[2] = molecular target: the molecule itself; assay: SEC-MALS; STIL CCD (aa 717-758) alone, 100 µl injected at 62 to 4000 µM over an S200 10/300 column; 50 mM Tris pH 7.5, 150 mM NaCl, 2 mM DTT, 0.4 ml/min
[3] = molecular target: the molecule itself; assay: crystal structure; STIL 726-750 alone, 0.91 Å; sitting drop, 19°C; tetramer (dimer of dimers) generated by crystallographic symmetry
[4] = molecular target: the molecule itself; assay: SEC-MALS; apo HsPB3 (aa 884-970) alone, 100 µl at 200 µM over a Superdex 200 10/300 column; 50 mM Tris pH 7.5, 150 mM NaCl, 2 mM DTT

B1: His-lipoyl-tagged Drosophila Ana2 coiled-coil domain (aa 193-229) (protein)
chain: NKSDLAALVSLVESVRHEQQQLRNLCEMILEQQQRAK
modifications: also: His-lipoyl-tagged
- binding result [1]: no binding

B2: human STIL coiled-coil domain (aa 717-758), tag cleaved (domain or fragment)
chain: GGSGLSPDAYRFLTEQDRQLRLLQAQIQRLLEAQSLMPCSPKTTA
notes: remnant left at the N-terminus of the CCD after TEV cleavage of the His-lipoyl tag; STIL, human, coiled-coil domain, residues 717-758; also called HsCCD; STIL CCD; source: E. coli C41, purified (Ni-NTA, TEV cleavage, reverse Ni-NTA, size exclusion); not shown: His, N-terminal, cleaved; lipoyl domain (B. stearothermophilus dihydrolipoamide acetyltransferase), N-terminal, cleaved
- stoichiometry N [2]: ≥ 2 and < 4

B3: human STIL coiled-coil domain (aa 726-750), tag cleaved (domain or fragment)
chain: GGSLTEQDRQLRLLQAQIQRLLEAQSLM
notes: remnant left at the N-terminus of the CCD after TEV cleavage of the His-lipoyl tag; STIL, human, coiled-coil domain, residues 726-750; also called STIL^726-750; HsCCD; source: E. coli C41, purified (Ni-NTA, TEV cleavage, reverse Ni-NTA, size exclusion); not shown: His, N-terminal, cleaved; lipoyl domain (B. stearothermophilus dihydrolipoamide acetyltransferase), N-terminal, cleaved
- stoichiometry N [3]: 4

B4: human PLK4 Polo-Box-3 domain (aa 884-970), tag cleaved (domain or fragment)
chain: GPMGSAQLLKSVFVKNVGWATQLTSGAVWVQFNDGSQLVVQAGVSSISYTSPNGQTTRYGENEKLPDYIKQKLQCLSSILLMFSNPTPNFH
notes: remnant left at the N-terminus of the PB3 construct after 3C cleavage of the His-MBP tag; PLK4, human, Polo-Box-3 domain, residues 884-970; from an E. coli codon-optimised cDNA (Geneart); also called HsPB3; apoHsPB3; source: E. coli B834, purified (Ni-NTA, 3C cleavage, reverse Ni-NTA, size exclusion); not shown: His, N-terminal, cleaved; MBP, N-terminal, cleaved
- stoichiometry N [4]: 2
